Source: patent publication US20100260668A1 (published 2010)
Blank lines part the entries; values can stand above or below the binder they belong to.

Molecular target: T1, VEGF (UniProt P15692-4 27-191)
T1 construct: Bought reagent; also called vascular endothelial growth factor
Assay: SPR (Biacore), DVD-Ig captured, VEGF in solution

T1 sequence (P15692 other isoform, or with tags, fused parts or gaps limits assumed): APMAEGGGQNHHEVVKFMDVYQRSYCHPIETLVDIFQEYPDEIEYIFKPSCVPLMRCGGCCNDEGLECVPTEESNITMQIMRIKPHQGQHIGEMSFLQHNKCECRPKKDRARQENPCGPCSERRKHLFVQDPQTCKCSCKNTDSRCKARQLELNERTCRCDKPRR

B2: DVD462 (bispecific antibody, human IgG1, kappa)
heavy: not shown
light: DIQMTQSPSSLSASVGDRVTITCRASQDVSTAVAWYQQKPGKAPKLLIYSASFLYSGVPSRFSGSGSGTDFTLTISSLQPEDFATYYCQQSYTTPPTFGQGTKVEIKRTVAAPSVFIFPPDIVMTQSPDSLAVSLGERATISCRASESVDNYGISFMKWFQQKPGQPPKLLIYAASNQGSGVPDRFSGSGSGTDFTLTISSLQAEDVAVYYCQQSKEVPWTFGGGTKVEIKRTVAAPSVFIFPPSDEQLKSGTASVVCLLNNFYPREAKVQWKVDNALQSGNSQESVTEQDSKDSTYSLSSTLTLSKADYEKHKVYACEVTHQGLSSPVTKSFNRGEC
notes: DVD-Ig; N-term; VD AB070 (VEGF), C-term; VD AB069 (DLL4); HC linker short, LC linker long; also called DVD462H; DVD462L
Kd: 0.864 nM | koff: 0.000858 s⁻¹ | kon: 993000 M⁻¹ s⁻¹

B3: DVD525 (bispecific antibody, human IgG1, kappa)
heavy: not shown
light: QAVVTQESALTTSPGETVTLTCRSSTGAVTTSNYANWVQEKPDHLFTGLIGGTNNRAPGVPARFSGSLIGDKAALTITGAQTEDEAIYFCALWYSNHWVFGGGTKLTVLGQPKAAPDIQMTQSPSSLSASVGDRVTITCRASQDVSTAVAWYQQKPGKAPKLLIYSASFLYSGVPSRFSGSGSGTDFTLTISSLQPEDFATYYCQQSYTTPPTFGQGTKVEIKRTVAAPSVFIFPPSDEQLKSGTASVVCLLNNFYPREAKVQWKVDNALQSGNSQESVTEQDSKDSTYSLSSTLTLSKADYEKHKVYACEVTHQGLSSPVTKSFNRGEC
notes: DVD-Ig; N-term; VD AB073 (DLL4), C-term; VD AB070 (VEGF); HC linker long, LC linker short; also called DVD525H; DVD525L
Kd: 0.447 nM | koff: 0.000483 s⁻¹ | kon: 1.08e+06 M⁻¹ s⁻¹

B5: DVD531 (bispecific antibody, human IgG1, kappa, lambda)
heavy: not shown
light: QAVVTQESALTTSPGETVTLTCRSSTGAVTTSNYANWVQEKPDHLFTGLIGGTNNRAPGVPARFSGSLIGDKAALTITGAQTEDEAIYFCALWYSNHWVFGGGTKLTVLGQPKAAPSVTLFPPDIQMTQSPSSLSASVGDRVTITCRASQDVSTAVAWYQQKPGKAPKLLIYSASFLYSGVPSRFSGSGSGTDFTLTISSLQPEDFATYYCQQSYTTPPTFGQGTKVEIKRTVAAPSVFIFPPSDEQLKSGTASVVCLLNNFYPREAKVQWKVDNALQSGNSQESVTEQDSKDSTYSLSSTLTLSKADYEKHKVYACEVTHQGLSSPVTKSFNRGEC
notes: DVD-Ig; N-term; VD AB073 (DLL4), C-term; VD AB070 (VEGF); HC linker short, LC linker long; also called DVD531H; DVD531L
Kd: 0.584 nM | koff: 0.000442 s⁻¹ | kon: 756000 M⁻¹ s⁻¹

B6: DVD466 (bispecific antibody, human IgG1, kappa)
heavy: not shown
light: DIQMTQSPSSLSASVGDRVTITCRASQDVSTAVAWYQQKPGKAPKLLIYSASFLYSGVPSRFSGSGSGTDFTLTISSLQPEDFATYYCQQSYTTPPTFGQGTKVEIKRTVAAPDIQMTQSPSSLSASVGDRVTITCRASQDVSTAVAWYQQKPGKAPKLLIYSASFLYSGVPSRFSGSGSGTDFTLTISSLQPEDFATTYYCQQSYTGTVTFGQGTKVEIKRTVAAPSVFIFPPSDEQLKSGTASVVCLLNNFYPREAKVQWKVDNALQSGNSQESVTEQDSKDSTYSLSSTLTLSKADYEKHKVYACEVTHQGLSSPVTKSFNRGEC
notes: DVD-Ig; N-term; VD AB070 (VEGF), C-term; VD AB015 (DLL4); HC linker short, LC linker short; also called DVD466H; DVD466L
Kd: 0.71 nM | koff: 0.000393 s⁻¹ | kon: 553000 M⁻¹ s⁻¹

B7: DVD478 (bispecific antibody, human IgG1, kappa)
heavy: not shown
light: B6 light
notes: DVD-Ig; N-term; VD AB070 (VEGF), C-term; VD AB015 (DLL4); HC linker long, LC linker short; also called DVD478H; DVD478L
Kd: 0.354 nM | koff: 0.000195 s⁻¹ | kon: 552000 M⁻¹ s⁻¹

B8: DVD489 (bispecific antibody, human IgG1, kappa, L234A L235A)
heavy: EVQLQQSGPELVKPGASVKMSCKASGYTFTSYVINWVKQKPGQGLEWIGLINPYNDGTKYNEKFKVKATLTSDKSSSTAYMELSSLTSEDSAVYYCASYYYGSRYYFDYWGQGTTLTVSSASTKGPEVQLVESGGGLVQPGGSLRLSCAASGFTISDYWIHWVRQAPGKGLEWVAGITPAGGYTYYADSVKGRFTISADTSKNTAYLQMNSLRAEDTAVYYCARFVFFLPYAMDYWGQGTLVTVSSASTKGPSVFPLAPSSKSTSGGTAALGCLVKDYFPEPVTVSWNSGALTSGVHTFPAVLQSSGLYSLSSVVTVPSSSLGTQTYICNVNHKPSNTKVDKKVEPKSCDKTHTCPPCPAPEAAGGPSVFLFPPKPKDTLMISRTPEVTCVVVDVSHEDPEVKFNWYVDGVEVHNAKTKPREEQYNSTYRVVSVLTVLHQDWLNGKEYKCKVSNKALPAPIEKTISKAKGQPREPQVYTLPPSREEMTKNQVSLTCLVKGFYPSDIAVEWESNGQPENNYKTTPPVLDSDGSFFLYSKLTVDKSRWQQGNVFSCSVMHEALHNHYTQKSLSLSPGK
light: DIQMTQSSSYLSVSLGGRVTITCKASDHINNWLAWYQQKPGNAPRLLISGATSLETGVPSRFSGSGSGKDYTLSITSLQTEDVATYYCQQYWSIPLTFGAGTKLELKRTVAAPDIQMTQSPSSLSASVGDRVTITCRASQDVSTAVAWYQQKPGKAPKLLIYSASFLYSGVPSRFSGSGSGTDFTLTISSLQPEDFATYYCQQSYTTPPTFGQGTKVEIKRTVAAPSVFIFPPSDEQLKSGTASVVCLLNNFYPREAKVQWKVDNALQSGNSQESVTEQDSKDSTYSLSSTLTLSKADYEKHKVYACEVTHQGLSSPVTKSFNRGEC
notes: DVD-Ig; N-term; VD AB072 (DLL4), C-term; VD AB070 (VEGF); HC linker short, LC linker short; also called DVD489H; DVD489L
Kd: 1.76 nM | koff: 0.000365 s⁻¹ | kon: 207000 M⁻¹ s⁻¹

B9: DVD501 (bispecific antibody, human IgG1, kappa)
heavy: not shown
light: B8 light
notes: DVD-Ig; N-term; VD AB072 (DLL4), C-term; VD AB070 (VEGF); HC linker long, LC linker short; also called DVD501H; DVD501L
Kd: 0.821 nM | koff: 0.000175 s⁻¹ | kon: 213000 M⁻¹ s⁻¹

B10: DVD495 (bispecific antibody, human IgG1, kappa)
heavy: not shown
light: DIQMTQSSSYLSVSLGGRVTITCKASDHINNWLAWYQQKPGNAPRLLISGATSLETGVPSRFSGSGSGKDYTLSITSLQTEDVATYYCQQYWSIPLTFGAGTKLELKRTVAAPSVFIFPPDIQMTQSPSSLSASVGDRVTITCRASQDVSTAVAWYQQKPGKAPKLLIYSASFLYSGVPSRFSGSGSGTDFTLTISSLQPEDFATYYCQQSYTTPPTFGQGTKVEIKRTVAAPSVFIFPPSDEQLKSGTASVVCLLNNFYPREAKVQWKVDNALQSGNSQESVTEQDSKDSTYSLSSTLTLSKADYEKHKVYACEVTHQGLSSPVTKSFNRGEC
notes: DVD-Ig; N-term; VD AB072 (DLL4), C-term; VD AB070 (VEGF); HC linker long, LC linker long; also called DVD495H; DVD495L
Kd: 0.645 nM | koff: 0.000204 s⁻¹ | kon: 316000 M⁻¹ s⁻¹

B11: DVD507 (bispecific antibody, human IgG1, kappa, L234A L235A)
heavy: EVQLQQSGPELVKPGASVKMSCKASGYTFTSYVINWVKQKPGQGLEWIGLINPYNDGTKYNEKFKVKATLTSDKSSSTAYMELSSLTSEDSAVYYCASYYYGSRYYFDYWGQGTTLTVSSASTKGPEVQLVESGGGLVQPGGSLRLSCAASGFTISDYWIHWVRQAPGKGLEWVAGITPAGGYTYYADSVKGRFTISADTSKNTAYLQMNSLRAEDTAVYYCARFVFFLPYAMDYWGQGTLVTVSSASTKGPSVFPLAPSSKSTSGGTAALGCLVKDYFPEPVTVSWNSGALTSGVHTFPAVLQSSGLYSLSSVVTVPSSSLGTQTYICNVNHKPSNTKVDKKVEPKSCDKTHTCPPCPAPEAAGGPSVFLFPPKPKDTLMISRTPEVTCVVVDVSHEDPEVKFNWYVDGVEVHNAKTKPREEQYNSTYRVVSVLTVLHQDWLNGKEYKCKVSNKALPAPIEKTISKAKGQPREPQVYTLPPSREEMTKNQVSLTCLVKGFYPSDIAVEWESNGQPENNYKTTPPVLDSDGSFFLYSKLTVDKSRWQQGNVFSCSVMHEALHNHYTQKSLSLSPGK
light: B10 light
notes: DVD-Ig; N-term; VD AB072 (DLL4), C-term; VD AB070 (VEGF); HC linker short, LC linker long; also called DVD507H; DVD507L
Kd: 0.847 nM | koff: 0.000201 s⁻¹ | kon: 238000 M⁻¹ s⁻¹

The next binders have a lower Kd than those just listed; values first:

Kd: 0.281 nM | koff: 0.00448 s⁻¹ | kon: 1.6e+07 M⁻¹ s⁻¹
B13: DVD456 (bispecific antibody, human IgG1, kappa)
heavy: not shown
light: DIQMTQSPSSLSASVGDRVTITCRASQDVSTAVAWYQQKPGKAPKLLIYSASFLYSGVPSRFSGSGSGTDFTLTISSLQPEDFATYYCQQSYTTPPTFGQGTKVEIKRTVAAPDIVMTQSPDSLAVSLGERATISCRASESVDNYGISFMKWFQQKPGQPPKLLIYAASNQGSGVPDRFSGSGSGTDFTLTISSLQAEDVAVYYCQQSKEVPWTFGGGTKVEIKRTVAAPSVFIFPPSDEQLKSGTASVVCLLNNFYPREAKVQWKVDNALQSGNSQESVTEQDSKDSTYSLSSTLTLSKADYEKHKVYACEVTHQGLSSPVTKSFNRGEC
notes: DVD-Ig; N-term; VD AB070 (VEGF), C-term; VD AB069 (DLL4); HC linker long, LC linker short; also called DVD456H; DVD456L

Kd: 0.255 nM | koff: 0.00431 s⁻¹ | kon: 1.69e+07 M⁻¹ s⁻¹
B1: DVD450 (bispecific antibody, human IgG1, kappa)
heavy: not shown
light: B2 light
notes: DVD-Ig; N-term; VD AB070 (VEGF), C-term; VD AB069 (DLL4); HC linker long, LC linker long; also called DVD450H; DVD450L

Kd: 0.255 nM | koff: 0.0041 s⁻¹ | kon: 1.61e+07 M⁻¹ s⁻¹
B15: DVD484 (bispecific antibody, human IgG1, kappa)
heavy: not shown
light: DIQMTQSPSSLSASVGDRVTITCRASQDVSTAVAWYQQKPGKAPKLLIYSASFLYSGVPSRFSGSGSGTDFTLTISSLQPEDFATYYCQQSYTTPPTFGQGTKVEIKRTVAAPSVFIFPPDIQMTQSPSSLSASVGDRVTITCRASQDVSTAVAWYQQKPGKAPKLLIYSASFLYSGVPSRFSGSGSGTDFTLTISSLQPEDFATTYYCQQSYTGTVTFGQGTKVEIKRTVAAPSVFIFPPSDEQLKSGTASVVCLLNNFYPREAKVQWKVDNALQSGNSQESVTEQDSKDSTYSLSSTLTLSKADYEKHKVYACEVTHQGLSSPVTKSFNRGEC
notes: DVD-Ig; N-term; VD AB070 (VEGF), C-term; VD AB015 (DLL4); HC linker short, LC linker long; also called DVD484H; DVD484L

Kd: 0.223 nM | koff: 0.00522 s⁻¹ | kon: 2.35e+07 M⁻¹ s⁻¹
B4: DVD519 (bispecific antibody, human IgG1, kappa, lambda)
heavy: not shown
light: B5 light
notes: DVD-Ig; N-term; VD AB073 (DLL4), C-term; VD AB070 (VEGF); HC linker long, LC linker long; also called DVD519H; DVD519L

Kd: 0.201 nM | koff: 0.00024 s⁻¹ | kon: 1.2e+06 M⁻¹ s⁻¹
B14: DVD472 (bispecific antibody, human IgG1, kappa)
heavy: not shown
light: B15 light
notes: DVD-Ig; N-term; VD AB070 (VEGF), C-term; VD AB015 (DLL4); HC linker long, LC linker long; also called DVD472H; DVD472L

Kd: 0.162 nM | koff: 0.0038 s⁻¹ | kon: 2.35e+07 M⁻¹ s⁻¹
B12: DVD444 (bispecific antibody, human IgG1, kappa)
heavy: not shown
light: B13 light
notes: DVD-Ig; N-term; VD AB070 (VEGF), C-term; VD AB069 (DLL4); HC linker short, LC linker short; also called DVD444H; DVD444L
